This sample holds only a part of the variants without activity.
B1: TPR 5TU (parent)
chain: GGAUCUUCUCGAUCUAACAAAAAAGACAAAUCUGCCACAAAGCUUGAGAGCAUCUUCGGAUGCAGAGGCGGCAGCCUUCGGUGGCGCGAUAGCGCCAACGUUCUCAACUAUGACACGCAAAACGCGUGCUCCGUUGAAUGGAGUUUAUCAUG

Variants of: B1
Test: polymerase ribozyme fitness, log enrichment relative to wild type (log ratio); higher = more active; in vitro selection for triplet polymerase activity
Method in brief: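 Only genotypes with ≥10 input reads and ≥1 read per output were kept after Illumina sequencing of input and output libraries. These libraries were PCR-built, transcribed mutants of each subunit of a heterodimeric triplet polymerase ribozyme, each put through one triplicate in vitro selection round with frozen incubation at −7 °C, gel excision of extended constructs, streptavidin-bead capture and RT-PCR. Fitness is a logarithmic ratio of genotype enrichment to wild-type enrichment, from inverse-variance-weighted replicate averages, with the logarithm in base 2.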

Row | Variant | polymerase ribozyme fitness (log ratio)
1 | GGAUCUUCUCGUUCUAACAAAAAAGACAAAUCUGCCACAAAGCUUGAGAGCAUUUUCGCGUGCAGAGGCGGCAGCCUUCGGUGGCGCGAUAGCGCCAACGUUCUCAACUAUGACACGCAAAACGCGUGCUCCGUUGAAUGGAGGUUAUCAUG [A12U C54U G59C A60G U144G] | -0.245
2 | GGAGCUUCUCUAUCUAACAAAAAAGACAAAUCUGCCACAUAGCUUGAGAGCAUCAUCGGAUGCAGAGGCGGCAGCCUUCGGUGGCGCGAUAGCGCCAUCGUUCUCAACUAUGACACGCAAAACGCGUGCUCCGUUGAAUGGAGUUUAUCAUG [U4G G11U A40U U55A A98U] | -3.1
3 | GGAUCUUCUCGAUCUAACAAAAAAGACAAAUCUGCCACAAAGCUUGAGAGCAUCUUCGGAUGCAGGGGCGGCAGCCUUCGGUGGCGCGAUAGCGCCAACGUUCUCGACUAUGACACGCAAAACGCGUGCUCCGUUGAAAGGAGUUUAUCAUG [A66G A106G U139A] | ≤ -4.2
4 | GGAUCUUCUCGCUCUAACAAAAAAGACAAAUCUGUCACAAAGCUUGAGAGCAUCUUCGGAUGCAGAGGCGGCAGCCUUCGGUGGCACGAUAGUGCCAACGUUCUCAACUAUGACACGCAAAACGCGUGCUCCGUUGAAUGGAGUUUAUCAUG [A12C C35U G86A C93U] | -1.43
5 | GGUUCUUCUUGAUCUAACAAAAAAGACAAAUCUGCCACAAAGCUUGAGAGCAUCUACGGAUGCAGAGGCGGCAGCCUUCGGUGGCGCGAUAGCGCUAACGUUCUCAACUAUGACAUGCAAAACGCGUGCUCCGUUGAAUGGAAUUUAUCAUG [A3U C10U U56A C96U C116U G143A] | -3.56
6 | GGAUCUUCUCGAUCUAACAAAAAAGACAAAUCUGCCACAAAGCUUGAGAGCAUCUUCGGAUGCAGAGGCGGCAGCCUUCGGUGGCGCGAUAGCGCGAACGUUCUCAACUAUGACACGCAAAACGCGUGCUCCGUUGAAUGGAGUUUAUCAUU [C96G G152U] | -2.77
7 | GGAUCUUCUCGAUCUAACAAAAAAGACAAAUCUGCCACAAAGCUUGAGAGCAUCUUCGGAUGCAGAGACGGCAGCCUUCGGUGGGGCGAUAGCGCCAACGUUCUCAACUAUGACACGCAAAACGCGUGCUCCGUUGAAUGGAGUUUAUCAUG [G68A C85G] | ≤ -4.2
8 | GGAUCUUCUCGAUCUAACAAAAAAGACAAAUCUGCCACAAAGCUUGAGAGCAUCUUCGGAUGCAGAGGCGGCAGCAUUCGGUGGCGCGAUAGCGCCAACGUUCACAACUAUGACACGCAAAACGAGUGCUCCGUUGAAUGGCGAUUAUCAUG [C76A U104A C125A A142C U144A] | ≤ -4.2
9 | GGAUCUUCUCGAUCUAACAAAAAAGACAAAUCUGCCACAAAGCUUGAGAGCAUCUUAGGAUGCAGAGGCGGCAGCCUUCGGUGGCGCGAUAUCGCCAACGUUCUGAACUAUGACACGCAAAACGCGUGCUCCGUUGAAUGGAGUUUAUCAUG [C57A G92U C105G] | -1.2
10 | GGAUGUUCUCGAUCUAACAAAAAAGACAAAUCUGUCACAAAGCUUGAGAGCAUCUUCGGAUGCAGAGGCGGCAGCCUUCUGUGGCGCGAUAGCGUCAACGUUCACAACUAUGACACGCAAAACGCGUGCUCCGUUGAAUGGAGUUUAUCAUG [C5G C35U G80U C95U U104A] | ≤ -4.2
11 | GGAUCUUCUCGAUCUAACAAAAAAGACAAAUCUGCCACAUAGCUUGAGAGCAUCUUCGGAUGCAGAGGCGGCAGCCUUCGGUGGCGCGAUAGCUCCAACGUUCUCAACUAUGACACGCAAAACGCGUGCUCCGUUCAAUGGAGUUUAUCAUG [A40U G94U G136C] | -4.02
12 | GGUUCUUCUCGAUCUAACAAAAAAGACAAAUCUGCCACAAAGCUUGAGAGCAUCUUCGGGUGCAGAGGCCGCAGCCUUCCGUGGCACGAUAGCGCCAACGUUCUCAACUAUGACACGCAAAACGCGUGCUCCGUGGAAUGGAGAUUAUCAUG [A3U A60G G70C G80C G86A U135G U144A] | ≤ -4.2
13 | GGAUCUUUUCGAUCAAACAAAAAAGACAAAUCUGCCACAAAGCUUGAGAGCAUCUUCUGAUGCAGAGGAGGCAGCCUUCGGUGGAGCGAUAGCGCCAACGUUCUCAACUAUGACACGCAAAACCCGUGCUCCGUUGAAUGGAGUUUAUCAUG [C8U U15A G58U C69A C85A G124C] | -3.61
14 | GGAUCUUCUCGAUCUACCACAAAAGACAAAUCUGCCACAAAGCUUGAGAGCAUCUUCGGAUGCAGAGGCGGCAGCCUUCGGUGGCGCGAUAGCGCCAACGUUCUCAAGUAUGACACGCAAAACGCGUGCUCCGUUGAAUGGAGUUUAUCAUG [A17C A20C C108G] | ≤ -4.2
15 | GGAUCUUCUCGAUCUAACAAAAAAGACAAAUCUGCCACAAAGCUUGAGAGCAUCUUCAGAUGCAGAGGCGGUAGCAUUCGGUGGCGCGAUAGCGCCAACGUUCUCAACUAUGACACGCAAAACGCGUGCUCCGUUGAAUGGAGUUUAUCAUG [G58A C72U C76A] | -1.3
16 | GGAUCUUCUCGAUCUAACAAAAAAGACAAAUCUGCCACAAAGCUUGAGAGCAUCUUCGGAUGCAGAGGCGGCAGCCUUCGGUAGCGCGAUAGCGCCAACGUUCUCAACUAUGACACGCAAAACGCGUGCUCCGUUGAAUGGAGUUUAUCAAG [G83A U151A] | -3.69
17 | GGAUCUUCUCGAUCUAACAAAAAAGACAAAUCUGCCACAAAGCUUGAGAGCAACUUCGGAUGCAGAGGCGGCAGCCUUCGGUGGCGCGAUAGCGCCAACGUUCUCAACUAUGACACGCAAAACGCGUGCUCCGUUGAAUGGAGUUUAGCAUG [U53A U148G] | -4.01
18 | GGAUCUUCUCGAUCUAACAAAAAAGACAAAUCUGCCACAAUGCUUGAGAGCAUCUUCGGAUGCAGAGGCGGCAGCCUUCGGGGGCUCGAUAGCGCCUACGUUCUCAACUAUGACACGCAAAACCCGUGCUCCGUUGAAUGGAGUUUAUCAUG [A41U U82G G86U A97U G124C] | -3.18
19 | GGAUCUUCUCGAUCUAACAAAAAAGACAAAUCUGCCACACAGCUUGAGAGCAGCUUCGGAUGCAGGGGCGGCAGCCUUCGGUGGCGCGAUAGCGCCAACGUUCUCAACUAUGACACGCGAAACGCGUGCUCCGUUGAAUGGAGUUUAUCAUG [A40C U53G A66G A119G] | ≤ -4.2

Reference: the RNAGym collection of RNA variant scans (doi:10.1073/pnas.2313332121)
